The values below come from article PMC6112833, “Combinatorial engineering of N-TIMP2 variants that selectively inhibit MMP9 and MMP14 function in the cell” (Oncotarget, 2018).

Residue numbers refer to the chain shown, from its start.

Experiment [1] addresses T1, MMP14 catalytic domain (MMP14CAT, residues 112-292) (human, UniProt P50281 112-292, conjugated to DyLight-488 for the yeast display sorting and flow cytometry).
T1 construct: human MMP14 catalytic domain, residues 112-292; In the functional rows the MMP14 of the cells (endogenous in U87MG, or pCMV MMP14 in MCF-7) is meant; source: E. coli BL-21 (DE3), pET3a, purified as previously described
Briefly: enzyme inhibition assay (fluorogenic substrate, fit to Morrison's tight binding equation); 0.0075 nM MMP14CAT or MMP9CAT (MMP1CAT, MMP10CAT: concentration not stated) incubated with 0.4-25 nM or 1.5-500 nM inhibitor for 1 h at 37 C in TCNB buffer (50 mM Tris-HCl pH 7.5, 100 mM NaCl, 5 mM CaCl2, 0.05% Brij), then 15 uM Mca-Pro-Leu-Gly-Leu-Dpa-Ala-Arg-NH2; Ki from the apparent Ki; mean of three experiments. The following applies: both partners purified.

Experiment [2] addresses T2, MMP9 catalytic domain lacking the fibronectin-like domain (MMP9CAT, residues 107-215 and 391-443) (human, UniProt P14780 107-215; P14780 391-443, conjugated to DyLight-650 for the yeast display sorting and flow cytometry).
T2 construct: human MMP9 catalytic domain, first stretch, residues 107-215 (before the fibronectin-like domain, which is left out); human MMP9 catalytic domain, second stretch, residues 391-443 (after the fibronectin-like domain); In the functional rows the full-length MMP9 secreted by MCF-7-MMP9 cells is meant; source: gift from Irit Sagi (Weizmann Institute of Science), purified
T2 chain (looked up): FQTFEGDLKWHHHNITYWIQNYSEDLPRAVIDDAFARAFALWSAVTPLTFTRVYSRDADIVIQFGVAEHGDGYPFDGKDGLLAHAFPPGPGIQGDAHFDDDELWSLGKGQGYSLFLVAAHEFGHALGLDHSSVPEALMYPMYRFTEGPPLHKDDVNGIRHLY
The description is as above. The following applies: both partners purified.

Experiment [3] has as its target T1, MMP14 catalytic domain (MMP14CAT, …). Description: cell-based or functional assay.
Experiment [4] has as its target T2, MMP9 catalytic domain lacking the …. Description: cell-based or functional assay.
Experiment [5] has as its target T3, MMP10 catalytic domain (MMP10CAT) (UniProt P09238 99-263).
T3 construct: catalytic domain of MMP10 (stromelysin); source: purified as previously described [66, 91]
Description: enzyme inhibition assay (fluorogenic substrate, fit to Morrison's tight binding equation); 0.0075 nM MMP14CAT or MMP9CAT (MMP1CAT, MMP10CAT: concentration not stated) incubated with 0.4-25 nM or 1.5-500 nM inhibitor for 1 h at 37 C in TCNB buffer (50 mM Tris-HCl pH 7.5, 100 mM NaCl, 5 mM CaCl2, 0.05% Brij), then 15 uM Mca-Pro-Leu-Gly-Leu-Dpa-Ala-Arg-NH2; Ki from the apparent Ki; mean of three experiments. The following applies: both partners purified.

In experiment [6] the target is T4, MMP1 catalytic domain (MMP1CAT) (UniProt P03956 100-269).
T4 construct: catalytic domain of MMP1 (collagenase); source: purified as previously described [66, 91]
T4 sequence (looked up): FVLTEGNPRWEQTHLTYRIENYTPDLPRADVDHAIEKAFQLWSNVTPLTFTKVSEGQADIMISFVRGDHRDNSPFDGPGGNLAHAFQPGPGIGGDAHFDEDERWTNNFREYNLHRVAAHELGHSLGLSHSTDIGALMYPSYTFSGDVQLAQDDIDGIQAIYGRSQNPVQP
The experiment is described as above. The following applies: both partners purified.

T3 sequence (P09238 99-263): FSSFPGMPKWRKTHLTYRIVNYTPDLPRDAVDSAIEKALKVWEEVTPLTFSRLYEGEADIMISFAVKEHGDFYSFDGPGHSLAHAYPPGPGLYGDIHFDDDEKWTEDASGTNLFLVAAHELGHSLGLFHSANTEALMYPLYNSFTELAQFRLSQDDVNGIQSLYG

B1: N-TIMP2WT, wild type N-terminal domain of the tissue inhibitor of metalloproteinase-2, soluble form (domain or fragment, UniProt P16035 27-153, looked up)
chain: CSCSPVHPQQAFCNADVVIRAKAVSEKEVDSGNDIYGNPIKRIQYEIKQIKMFKGPEKDIEFIYTAPSSAVCGVSLDVGGKKEYLIAGKAEGDGKMHITLCDFIVPWDTLSTTQKKSLNHRYQMGCE
notes: limits worked out from the printed primers (forward primer encodes CSCSP, reverse primer ends at YQMGCE); also called wild-type N-TIMP-2; source: P. pastoris X33 (pPICZalphaA), secreted, purified (Ni-NTA, Superdex 75 SEC)
For B1, the Ki in experiment [1] came out at 5 ± 1 nM; in experiment [2], 0.5 ± 0.04 nM; in experiment [5], 3.5 ± 0.8 nM; in experiment [6], 0.7 ± 0.1 nM. In experiment [3], the “inhibition of MMP2 activation by MMP14 in U87MG cells (gelatin zymography of media, 100 nM inhibitor, 48 h)” value (shortened to “inhibition of MMP2 activation by MMP14”) came out at 45%. Also, the “inhibition of trans-well migration of MCF-7-MMP14 cells (100 nM inhibitor, 24 h)” value (from here on “inhibition … (100 nM inhibitor, 24 h)”) in experiment [3] was determined as 30%. The “inhibition of the gelatin-degrading activity of MMP9 from MCF-7-MMP9 supernatant (gelatin zymography, gel incubated with 100 nM inhibitor)” value in experiment [4] is roughly 86%.

B2: N-TIMP2_(14_18), soluble form (designed binder)
chain: B1 chain with S4K, I35L, N38F, S68F, H97E
notes: limits worked out from the printed primers (forward primer encodes CSCK, reverse primer ends at YQMGCE); also called N-TMP2_(14_18); source: P. pastoris X33 (pPICZalphaA), secreted, purified (Ni-NTA, Superdex 75 SEC)
As to B2, in experiment [1], the Ki is 0.024 ± 0.005 nM. Moreover, the Ki in experiment [2] was determined as 1.25 ± 0.2 nM. Besides, in experiment [3], the “inhibition of MMP2 activation by MMP14” value was 50% and the “inhibition … (100 nM inhibitor, 24 h)” value was roughly 50%.

B3: N-TIMP2_(14_17), soluble form (designed binder)
chain: B1 chain with S4D, I35L, N38S, S68D, V71S, H97S, T99F
notes: limits worked out from the printed primers (forward primer encodes CSCD, reverse primer ends at YQMGCE); source: P. pastoris X33 (pPICZalphaA), secreted, purified (Ni-NTA, Superdex 75 SEC)
Take B3: the Ki in experiment [1] came out at 0.03 ± 0.003 nM; in experiment [2], 3.58 ± 0.5 nM; in experiment [5], 3.2 ± 0.4 nM; in experiment [6], 0.92 ± 0.15 nM. Besides, the “inhibition of MMP2 activation by MMP14” value in experiment [3] came out at 45%. Moreover, in experiment [3], the “inhibition … (100 nM inhibitor, 24 h)” value turned out to be 38%.

B4: N-TIMP2_(9_1), soluble form (designed binder)
chain: B1 chain with S4P, I35P, N38W, S68N, V71I, H97M, T99K
notes: limits worked out from the printed primers (forward primer encodes CSCP, reverse primer ends at YQMGCE); source: P. pastoris X33 (pPICZalphaA), secreted, purified (Ni-NTA, Superdex 75 SEC)
Take B4: the figures for the Ki in experiment [1] and in experiment [2] were 240 ± 31 nM and 0.78 ± 0.02 nM, respectively. In addition, the “inhibition of the gelatin-degrading activity of MMP9 from MCF-7-MMP9 supernatant (gelatin zymography, gel incubated with 100 nM inhibitor)” value in experiment [4] was roughly 82%.

B5: N-TIMP2_(9_13), soluble form (designed binder)
chain: B1 chain with S4P, I35P, N38W, S68N, H97K, T99K
notes: as for B4
Take B5: the Ki was 832 ± 44 nM in experiment [1], 1.2 ± 0.007 nM in experiment [2], 40 ± 14 nM in experiment [5] and 18 ± 8 nM in experiment [6]. Moreover, the “inhibition of the gelatin-degrading activity of MMP9 from MCF-7-MMP9 supernatant (gelatin zymography, gel incubated with 100 nM inhibitor)” value in experiment [4] is roughly 75%.
